According to patent publication US20250333496A1 (Novo Nordisk, published 2025):
Numbering of substitutions follows the chain as printed. Where “and” joins values, the source holds several entries; their conditions need not be identical. Equal values may be shown once. Each block holds one binder with its values, some of them ahead of it.

What was measured:
[1] = biological target: T1, human IL-6 (mature hIL-6) (human, UniProt P05231 30-212); experiment: cell-based or functional assay
[2] = biological target: T1, human IL-6 (mature hIL-6); experiment: cell-based or functional assay; remark: listed apart in the source
[3] = biological target: T2, recombinant human HPC4-tagged IL-6 (human, UniProt P05231 30-212); experiment: SPR, HPC4-IL-6 captured on anti-HPC4 antibody, VHH injected, 25 C, 1:1 model
T2 construct: captured on an anti-HPC4 antibody in SPR; also called HPC4-human IL6
Procedure: Binding of purified anti-IL-6 VHHs to recombinant human HPC4-tagged IL-6 (SEQ ID NO: 98) was probed by Surface Plasmon Resonance (SPR).
IL-6 was captured at a flow rate of 10 μL/min for 30 seconds.
Subsequently, concentration series of VHH polypeptides according to Table 33 were injected at a flow rate of 50 μL/min for 200 seconds to allow for binding to […] followed by 600 seconds running buffer (10 mM HEPES, 150 mM NaCl, 5 mM CaCl₂, 0.05% (v/v) Surfactant P20, 1 mg/mL bovine serum albumin, pH 7.4) injection allowing dissociation from IL-6. The running buffer was also used for dilution of anti-IL-6 VHHs and IL-6. Regeneration of the chip was achieved using a regeneration buffer consisting of 50 mM EDTA in running buffer without CaCl₂, 30 seconds contact time, and a 30 μL/min flow rate applied twice to the surface. The binding data were collected at 25° C. at either a Biacore instrument (Cytiva AB, Uppsala) or a Bruker SPR32 (Bruker Daltonics). Data were analysed according to a 1:1 model using either BiaEvaluation or Biacore Insight Evaluation (Cytiva AB, Uppsala) or Bruker Analyser (Bruker Daltonics).

[4] = biological target: T1, human IL-6 (mature hIL-6); experiment: SPR (format not stated)
[5] = biological target: T1, human IL-6 (mature hIL-6); experiment: cell-based or functional assay; remark: listed apart in the source

T2 sequence (P05231 other isoform, or with tags, fused parts or gaps limits assumed): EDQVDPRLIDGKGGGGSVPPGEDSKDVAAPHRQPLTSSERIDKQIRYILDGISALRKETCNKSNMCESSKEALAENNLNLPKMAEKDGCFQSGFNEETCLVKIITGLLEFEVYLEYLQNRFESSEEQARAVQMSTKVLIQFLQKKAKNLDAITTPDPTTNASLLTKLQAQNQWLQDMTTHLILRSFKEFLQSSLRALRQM
T1 sequence (P05231 30-212): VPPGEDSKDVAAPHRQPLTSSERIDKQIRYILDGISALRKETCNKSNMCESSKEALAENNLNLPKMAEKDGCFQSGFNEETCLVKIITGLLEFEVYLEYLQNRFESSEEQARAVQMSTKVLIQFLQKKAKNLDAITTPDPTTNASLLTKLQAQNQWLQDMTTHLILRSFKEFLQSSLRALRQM

B3: Compound 8 (VHH)
VHH: EVQLVESGGGLVQPGGSLQLSCTTSGRKFDEYAVGWFRQGPGKEREFVADIGENAENTWYAESVLGRFTISRDDAKNTVYLQMDSLKPEDTAVYYCAADKYGVGGNAQGYYDSWGQGTQVTVSS
modifications: Chem. 24 (C16 diacid substituent) on Cys in position 4 and on Cys in position 6 of the extension (SEQ ID NO: 72)
notes: Polypeptide derivative; extension E2 at the C-terminus of the VHH; also called VHH_1.5-E2 with 2x Chem. 24
- IC 50 (nM), reporter gene assay, 0% HSA [2]: 0.02 nM
- IC 50 (nM), reporter gene assay, 1% HSA [2]: 0.017 nM
- Kd [3]: 0.0221 nM and 0.0296 nM
- koff [3]: 0.000101 s⁻¹ and 0.000123 s⁻¹
- kon [3]: 4.58e+06 M⁻¹ s⁻¹ and 4.16e+06 M⁻¹ s⁻¹

B5: Compound 10 (VHH)
VHH: B3 VHH with K43Q, Q82E, S85G
modifications: Chem. 24 (C16 diacid substituent) on Cys in position 4 and on Cys in position 6 of the extension (SEQ ID NO: 72)
notes: Polypeptide derivative; extension E2 at the C-terminus of the VHH; also called VHH_1.7-E2 with 2x Chem. 24
- IC 50 (nM), reporter gene assay, 0% HSA [2]: 0.022 nM
- IC 50 (nM), reporter gene assay, 1% HSA [2]: 0.016 nM
- Kd [3]: 0.0191 nM and 0.0208 nM
- koff [3]: 0.000108 s⁻¹ and 9.33e-05 s⁻¹
- kon [3]: 4.48e+06 M⁻¹ s⁻¹ and 5.68e+06 M⁻¹ s⁻¹

B6: Compound 7 (VHH)
VHH: B3 VHH with G40A, E62H
modifications: Chem. 24 (C16 diacid substituent) on Cys in position 4 and on Cys in position 6 of the extension (SEQ ID NO: 72)
notes: Polypeptide derivative; extension E2 at the C-terminus of the VHH; also called VHH_1.4-E2 with 2x Chem. 24
- IC 50 (nM), reporter gene assay, 0% HSA [2]: 0.025 nM
- IC 50 (nM), reporter gene assay, 1% HSA [2]: 0.019 nM
- Kd [3]: 0.0252 nM and 0.0338 nM
- koff [3]: 0.000127 s⁻¹ and 0.000154 s⁻¹
- kon [3]: 5.05e+06 M⁻¹ s⁻¹ and 4.56e+06 M⁻¹ s⁻¹

B7: Polypeptide_24 (VHH)
VHH: B3 VHH with K28R, D30S, N54Q, E62H
notes: VHH_1.3 with C-terminal His tag extension E1; also called [VHH_1.3]-E1
- IC 50 (nM), reporter gene assay, 0% HSA [2]: 0.019 nM
- Kd [3]: 0.00321 nM
- koff [3]: 0.000132 s⁻¹
- kon [3]: 4.12e+07 M⁻¹ s⁻¹

B8: Polypeptide_27 (VHH)
VHH: B3 VHH with G40A, E62H
notes: VHH_1.4 with C-terminal His tag extension E1; also called [VHH_1.4]-E1
- IC 50 (nM), reporter gene assay, 0% HSA [2]: 0.026 nM
- Kd [3]: 0.00755 nM
- koff [3]: 0.000163 s⁻¹
- kon [3]: 2.16e+07 M⁻¹ s⁻¹

B9: Compound 5 (VHH)
VHH: B3 VHH with Q19K, K28R, D30S, N54Q
modifications: Chem. 24 (C16 diacid substituent) on Cys in position 4 and on Cys in position 6 of the extension (SEQ ID NO: 72)
notes: Polypeptide derivative; extension E2 at the C-terminus of the VHH; also called VHH_1.2-E2 with 2x Chem. 24
- IC 50 (nM), reporter gene assay, 0% HSA [2]: 0.019 nM
- IC 50 (nM), reporter gene assay, 1% HSA [2]: 0.012 nM
- Kd [3]: 0.0159 nM and 0.0214 nM
- koff [3]: 7.82e-05 s⁻¹ and 9.95e-05 s⁻¹
- kon [3]: 4.94e+06 M⁻¹ s⁻¹ and 4.65e+06 M⁻¹ s⁻¹

B11: Compound 4 (VHH)
VHH: B3 VHH with L11W, K28R, D30S, G40A, K43Q, N54Q, E62H, D74E
modifications: Chem. 24 (C16 diacid substituent) on Cys in position 4 and on Cys in position 6 of the extension (SEQ ID NO: 72)
notes: Polypeptide derivative; extension E2 at the C-terminus of the VHH; also called VHH_1.1-E2 with 2x Chem. 24
- IC 50 (nM), reporter gene assay, 0% HSA [2]: 0.024 nM
- IC 50 (nM), reporter gene assay, 1% HSA [2]: 0.015 nM
- Kd [3]: 0.0142 nM and 0.0191 nM
- koff [3]: 6.98e-05 s⁻¹ and 9.08e-05 s⁻¹
- kon [3]: 4.9e+06 M⁻¹ s⁻¹ and 4.75e+06 M⁻¹ s⁻¹

B12: Compound 9 (VHH)
VHH: B3 VHH with Q19K, K28R, D30S, G40A, N54Q, Q82E, S85G
modifications: Chem. 24 (C16 diacid substituent) on Cys in position 4 and on Cys in position 6 of the extension (SEQ ID NO: 72)
notes: Polypeptide derivative; extension E2 at the C-terminus of the VHH; also called VHH_1.6-E2 with 2x Chem. 24; Chem. 31
- IC 50 (nM), reporter gene assay, 0% HSA [2]: 0.022 nM
- IC 50 (nM), reporter gene assay, 1% HSA [2]: 0.014 nM
- Kd [3]: 0.0187 nM and 0.0218 nM and 0.0223 nM
- koff [3]: 8.71e-05 s⁻¹ and 0.000105 s⁻¹ and 0.000101 s⁻¹
- kon [3]: 4.66e+06 M⁻¹ s⁻¹ and 4.82e+06 M⁻¹ s⁻¹ and 4.53e+06 M⁻¹ s⁻¹

B14: Compound 12 (VHH)
VHH: EVQLVESGGGLVQPGGSLQLSCAASGFTFSNYWMYWVRQAPGQGLEWVSGINTGGSTPDYADSVKGRFAISRDNAKNTLYLQMDSLRPEDTAVYYCAADTPRVFRLDHYSPLGQGTQVTVSS
modifications: Chem. 24 (C16 diacid substituent) on Cys in position 4 and on Cys in position 6 of the extension (SEQ ID NO: 72)
notes: Polypeptide derivative; extension E2 at the C-terminus of the VHH; also called VHH_1.17-E2 with 2x Chem. 24
- IC 50 (nM), reporter gene assay, 1% HSA [2]: 0.021 nM
- Kd [3]: 0.0543 nM
- koff [3]: 0.000216 s⁻¹
- kon [3]: 7.36e+06 M⁻¹ s⁻¹

B15: Polypeptide_3 (VHH)
VHH: QVQLQESGGGLVQAGGSLRLSCTTSGRTFSSYAMGWFRQAPGKEREFVADIGENADNRWYAHSVKGRFTISRDNAKNTVYLQMNSLKPEDTAVYYCAADRYGVGGGAQGYYDSWGQGTQVTVSS
notes: VHH_2.3 with C-terminal His tag extension E1; also called [VHH_2.3]-E1
- Kd [4]: 0.872 nM
- Reporter gene-assay [pM] [5]: 39.8 pM

B16: Compound 1 (VHH)
VHH: B15 VHH with V2L, Q5V, L11W, A14P, R19Q, M34V, K43Q, R58T, N84D, R100S
modifications: Chem. 24 (C16 diacid substituent) on Cys in position 4 and on Cys in position 6 of the extension (SEQ ID NO: 72)
notes: Polypeptide derivative; extension E2 at the C-terminus of the VHH; also called VHH_1.12-E2 with 2x Chem. 24
- IC 50 (nM), reporter gene assay, 0% HSA [2]: 0.029 nM
- IC 50 (nM), reporter gene assay, 1% HSA [2]: 0.06 nM
- Kd [3]: 0.0637 nM and 0.0454 nM
- koff [3]: 0.000364 s⁻¹ and 0.000371 s⁻¹
- kon [3]: 5.67e+06 M⁻¹ s⁻¹ and 8.18e+06 M⁻¹ s⁻¹

B17: Compound 2 (VHH)
VHH: EVQLVESGGGLVQAGGSLQLSCTASGGTFSEYAMAWFRQAPGQEREFVTDIGESGGTWYADSVKGRFTISRDNAKNTVYLQMDSLRPEDTAVYYCAADSYGVGGGAERYYDSWGQGTQVTVSS
modifications: Chem. 24 (C16 diacid substituent) on Cys in position 4 and on Cys in position 6 of the extension (SEQ ID NO: 72)
notes: Polypeptide derivative; extension E2 at the C-terminus of the VHH; also called VHH_1.13-E2 with 2x Chem. 24
- IC 50 (nM), reporter gene assay, 0% HSA [2]: 0.065 nM
- IC 50 (nM), reporter gene assay, 1% HSA [2]: 0.041 nM
- Kd [3]: 0.0523 nM
- koff [3]: 0.000348 s⁻¹
- kon [3]: 6.66e+06 M⁻¹ s⁻¹

Second part, the binder after the results:

- IC50 (nM), STAT3-luc reporter gene assay [1]: 0.047 nM
- Relative IC50 to Reference Polypeptide_29 [1]: 1.4 fold
B1: Polypeptide_58 (VHH)
VHH: B3 VHH with Q19K, K28R, D30S, G40A, N54Q, D74N, Q82E, S85G

- IC50 (nM), STAT3-luc reporter gene assay [1]: 0.051 nM
- Relative IC50 to Reference Polypeptide_29 [1]: 1.5 fold
B2: Polypeptide_49 (VHH)
VHH: B3 VHH with E1Q, Q19K, K28R, D30S, G40A, N54Q, Q82E, S85G

- IC 50 (nM), reporter gene assay, 0% HSA [2]: 0.027 nM
- Kd [3]: 0.00508 nM
- koff [3]: 0.00013 s⁻¹
- kon [3]: 2.56e+07 M⁻¹ s⁻¹
B4: Polypeptide_28 (VHH)
VHH: B3 VHH
notes: VHH_1.5 with C-terminal His tag extension E1; also called [VHH_1.5]-E1

- IC 50 (nM), reporter gene assay, 0% HSA [2]: 0.017 nM
- IC 50 (nM), reporter gene assay, 1% HSA [2]: 0.01 nM
- koff [3]: 0.00014 s⁻¹ and 0.000208 s⁻¹ and 0.000137 s⁻¹
- kon [3]: 2.59e+07 M⁻¹ s⁻¹ and 1.05e+07 M⁻¹ s⁻¹ and 2.03e+07 M⁻¹ s⁻¹
B10: Polypeptide_47 (VHH)
VHH: QLQLVESGGGWVQPGGSLKLSCTTSGRRFSEYAVGWFRQAPGKEREFVADIGEQAENTWYAHSVLGRFTISRDEAKNTVYLQMNSLKPEDTAVYYCAADKYGVGGNAQGYYDSWGQGTQVTVSS
notes: VHH_1.15 with C-terminal His tag extension E1; also called [VHH_1.15]-E1

- IC 50 (nM), reporter gene assay, 0% HSA [2]: 0.023 nM
- Kd [3]: 0.0175 nM
- koff [3]: 0.000154 s⁻¹
- kon [3]: 8.82e+06 M⁻¹ s⁻¹
B13: Polypeptide_31 (VHH)
VHH: B3 VHH with K43Q, Q82E, S85G
notes: VHH_1.7 with C-terminal His tag extension E1; also called [VHH_1.7]-E1
